Measured values: PMC5688128, “Structural basis for tRNA-dependent cysteine biosynthesis” (Nature Communications, 2017)

B1: O-phosphoseryl-tRNA synthetase (SepRS), Methanocaldococcus jannaschii (enzyme)
chain: MRFDIKKVLELAEKDFETAWRETRALIKDKHIDNKYPRLKPVYGKPHPVMETIERLRQAYLRMGFEEMINPVIVDEMEIYKQFGPEAMAVLDRCFYLAGLPRPDVGLGNEKVEIIKNLGIDIDEEKKERLREVLHLYKKGAIDGDDLVFEIAKALNVSNEMGLKVLETAFPEFKDLKPESTTLTLRSHMTSGWFITLSSLIKKRKLPLKLFSIDRCFRREQREDRSHLMSYHSASCVVVGEDVSVDDGKVVAEGLLAQFGFTKFKFKPDEKKSKYYTPETQTEVYAYHPKLGEWIEVATFGVYSPIALAKYNIDVPVMNLGLGVERLAMIIYGYEDVRAMVYPQFYEYRLSDRDIAGMIRVDKVPILDEFYNFANELIDICIANKDKESPCSVEVKREFNFNGERRVIKVEIFENEPNKKLLGPSVLNEVYVYDGNIYGIPPTFEGVKEQYIPILKKAKEEGVSTNIRYIDGIIYKLVAKIEEALVSNVDEFKFRVPIVRSLSDINLKIDELALKQIMGENKVIDVRGPVFLNAKVEIK
notes: O-phosphoseryl-tRNA synthetase (SepRS) of Methanocaldococcus jannaschii; wild type; source: E. coli B834(DE3) plus pRARE2, purified (heat treatment 75 °C, HisTrap, Heparin, Superdex 200)

Legend:
[1] = biological target: T1, SepRS (SepRS-SepCysE-SepCysS ternary complex, transsulfursome) (Methanocaldococcus jannaschii, UniProt Q59054); test: X-ray crystal structure, […] Å; format: binding; settings: 10 mM ATP in crystallisation, pH 7.0; active site, Arg228, Glu230, His237, Tyr240; bent ATP
T1 construct: gene sepS; recombinant from E. coli B834(DE3), pET-15b; SepRS tetramer; only SepRS and SepCysE N-helix (Met1-Lys24) visible; with SepRS/SepCysS pathway enhancer SepCysE; O-phospho-L-seryl-tRNA:Cys-tRNA synthase

[2] = biological target: T2, SepCysS (SepCysE-SepCysS-tRNA^Cys complex) (Methanocaldococcus jannaschii, UniProt Q59072); test: X-ray crystal structure, […] Å; format: binding; settings: covalent; Lys234; crystallised at pH 5.0 with tRNA^Cys
T2 construct: gene pscS; recombinant, coexpressed with SepCysE in E. coli B834(DE3); SepCysS homodimer; co-crystal with tRNA^Cys; with SepRS/SepCysS pathway enhancer SepCysE
T2 sequence (Q59072 whole entry, one chain of several): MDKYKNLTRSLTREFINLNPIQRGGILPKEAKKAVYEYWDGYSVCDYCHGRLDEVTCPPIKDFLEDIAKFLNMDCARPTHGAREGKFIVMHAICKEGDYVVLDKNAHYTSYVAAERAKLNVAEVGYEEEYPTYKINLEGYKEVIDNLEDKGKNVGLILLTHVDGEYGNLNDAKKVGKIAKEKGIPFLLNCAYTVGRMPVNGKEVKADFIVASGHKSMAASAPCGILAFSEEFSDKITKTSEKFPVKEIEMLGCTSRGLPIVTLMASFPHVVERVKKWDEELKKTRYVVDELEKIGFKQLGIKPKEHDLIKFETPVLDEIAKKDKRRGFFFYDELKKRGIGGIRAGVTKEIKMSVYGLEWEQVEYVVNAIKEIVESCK

[3] = biological target: the molecule itself; test: crystal structure; 50 μM SepRS-SepCysE-SepCysS(del_RRF), 30 μM tRNA^Cys, 10 mM ATP; 0.1 M Tris-HCl pH 7.0, 0.3 M ammonium sulfate, 36% MPD; 3.10 Å; only SepRS and the N-helix of SepCysE visible; PDB 5X6C
[4] = biological target: the molecule itself; test: crystal structure; SepCysE-SepCysS mixed with tRNA^Cys at a molar ratio of 1:1.2, protein 16 mg/ml; 0.1 M MES pH 5.0, 2.4 M ammonium sulfate; 2.6 Å; PDB 5X6B
[5] = biological target: B1; test: negative stain electron microscopy; purified wild type and del_linker1 transsulfursome adsorbed on carbon-coated grids; 20 mM HEPES-KOH pH 8.0, 200 mM KCl, 5 mM MgCl2; uranyl formate; class averaging; settings: both partners purified
[6] = biological target: B1; test: SEC-SAXS; SepCysE(CTD)-truncated transsulfursome in solution; Superdex 200 Increase 10/300 GL, room temperature; scattering compared with models from the crystal structures; settings: both partners purified

Nc1ncnc2c1ncn2[C@@H]1O[C@H](COP(=O)(O)OP(=O)(O)OP(=O)(O)O)[C@@H](O)[C@H]1O [ATP]
X-ray crystal structure, 3.1 Å [1]: ATP was observed in the active sites of SepRS.

Cc1ncc(COP(=O)(O)O)c(C=O)c1O [pyridoxal-5′-phosphate]
X-ray crystal structure, 2.6 Å [2]: PLP was covalently bound to the side chain of the conserved Lys234

B1
stoichiometry N [3]: 4

B2: SepCysE (SepRS/SepCysS pathway enhancer), Methanocaldococcus jannaschii (natural protein)
chain: MRVEYSKDLIRKGISTISQLKKAKIRVEKDDKKISYKDAKPGKIDVNEFKKAIYLLIEADDFLYKKAPKHELNEEEAKEFCKLIIKCQEHLNKILANFGFEFEEKEIDEGALYIVSNKKLFKKLKNKNPNLKVVCTEGMLDIEDMRAIGVPEKALEGLKKKVEIARKNVERFIEKYKPEKIFVVVEDDKDELLYLRAKNLYNAEKLDADEILD
notes: SepCysE of Methanocaldococcus jannaschii; wild type
stoichiometry N [4]: 2
binding result [5]: binds

B3: CTD-truncated SepCysE of M. jannaschii (domain or fragment, Methanocaldococcus jannaschii, UniProt Q58876 1-110, looked up)
chain: MRVEYSKDLIRKGISTISQLKKAKIRVEKDDKKISYKDAKPGKIDVNEFKKAIYLLIEADDFLYKKAPKHELNEEEAKEFCKLIIKCQEHLNKILANFGFEFEEKEIDEG
notes: also called SepCysE(CTD)-truncated; source: E. coli B834(DE3) plus pRARE2, purified within the transsulfursome (same procedure as the wild type)
binding result [6]: binds

B4: Sep-tRNA:Cys-tRNA synthase (SepCysS), Methanocaldococcus jannaschii (enzyme)
chain: DKYKNLTRSLTREFINLNPIQRGGILPKEAKKAVYEYWDGYSVCDYCHGRLDEVTCPPIKDFLEDIAKFLNMDCARPTHGAREGKFIVMHAICKEGDYVVLDKNAHYTSYVAAERAKLNVAEVGYEEEYPTYKINLEGYKEVIDNLEDKGKNVGLILLTHVDGEYGNLNDAKKVGKIAKEKGIPFLLNCAYTVGRMPVNGKEVKADFIVASGHKSMAASAPCGILAFSEEFSDKITKTSEKFPVKEIEMLGCTSRGLPIVTLMASFPHVVERVKKWDEELKKTRYVVDELEKIGFKQLGIKPKEHDLIKFETPVLDEIAKKDKRRGFFFYDELKKRGIGGIRAGVTKEIKMSVYGLEWEQVEYVVNAIKEIVESCK
modifications: PLP covalently bound to the side chain of Lys234
notes: Sep-tRNA:Cys-tRNA synthase (SepCysS) of Methanocaldococcus jannaschii; wild type; large domain Gly43-Lys295, small domain Trp296-Lys396; Homodimer
stoichiometry N [4]: 2

B5: SepCysE(del_linker1) of M. jannaschii, 10 residues of linker1 truncated (natural protein, Methanocaldococcus jannaschii)
chain: MRVEYSKDLIRKGISTISQLKKAKSYKDAKPGKIDVNEFKKAIYLLIEADDFLYKKAPKHELNEEEAKEFCKLIIKCQEHLNKILANFGFEFEEKEIDEGALYIVSNKKLFKKLKNKNPNLKVVCTEGMLDIEDMRAIGVPEKALEGLKKKVEIARKNVERFIEKYKPEKIFVVVEDDKDELLYLRAKNLYNAEKLDADEILD
notes: source: E. coli B834(DE3) plus pRARE2, purified within the transsulfursome (same procedure as the wild type)
binding result [5]: binds
